Assay results reported in patent publication US20130064834A1 (published 2013).
Values belong to the binder of their own block, whether it stands above or below them.

Columns and labels:
[1] = biological target: T1, rat (Rattus norvegicus) PCSK9, myc-myc-his tagged (rat (Rattus norvegicus), UniProt P59996 31-691); assay: ELISA, mAb coated, 1.7 nM antigen
T1 construct: also called rPCSK9-mmh; rPCSK9

hPCSK9(D374Y)-mmh [2] = biological target: T2, hPCSK9(D374Y)-mmh (human, UniProt Q8NBP7 31-692); assay: ELISA, mAb coated, 1.7 nM antigen
T2 construct: also called hPCSK(D374Y)-mmh

[3] = biological target: T3, tagged rhesus monkey (Macaca mulata) PCSK9 (rhesus monkey (Macaca mulata), UniProt A8T666 31-692); assay: ELISA, mAb coated, 1.7 nM antigen
T3 construct: also called mmPCSK9-mmh; mmPCSK9

[4] = biological target: T4, Chimeric protein #1 (mPro-hCat-mC-term-mmh) (mouse; human, UniProt Q80W65 35-694); assay: ELISA, mAb coated, 1.7 nM antigen
T4 chain: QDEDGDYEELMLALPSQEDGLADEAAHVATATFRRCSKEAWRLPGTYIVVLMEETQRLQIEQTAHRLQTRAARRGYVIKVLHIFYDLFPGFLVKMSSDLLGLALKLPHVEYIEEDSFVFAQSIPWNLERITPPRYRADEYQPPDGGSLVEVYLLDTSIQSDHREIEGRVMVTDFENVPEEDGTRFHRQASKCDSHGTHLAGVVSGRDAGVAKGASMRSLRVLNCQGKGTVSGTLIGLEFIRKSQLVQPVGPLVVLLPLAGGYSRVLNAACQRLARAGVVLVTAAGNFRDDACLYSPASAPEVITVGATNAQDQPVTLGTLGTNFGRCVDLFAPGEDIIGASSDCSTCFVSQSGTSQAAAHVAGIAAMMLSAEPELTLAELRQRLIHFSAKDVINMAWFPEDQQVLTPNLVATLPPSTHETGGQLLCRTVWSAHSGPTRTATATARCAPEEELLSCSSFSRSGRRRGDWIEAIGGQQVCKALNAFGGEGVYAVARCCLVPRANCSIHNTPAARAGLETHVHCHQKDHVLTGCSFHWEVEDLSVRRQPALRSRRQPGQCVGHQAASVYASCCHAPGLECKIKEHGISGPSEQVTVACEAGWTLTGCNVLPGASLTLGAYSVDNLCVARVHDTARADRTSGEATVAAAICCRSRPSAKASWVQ

[5] = biological target: Chimeric protein #2 (hPro-mCat-mC-term-mmh) (human; mouse, UniProt Q80W65 19-694); assay: ELISA, mAb coated, 1.7 nM antigen
hPCSK9(D374Y)-mmh [6] = biological target: T2, hPCSK9(D374Y)-mmh; assay: SPR, mAb captured, 25C;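 also: antibodies held on a sensor chip bearing chemically coupled F(ab′)2 anti-human IgG as the capture surface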
Text: (§1) Each selected antibody was captured on a F(ab′)2 anti-hIgG surface created through direct chemical coupling to a BIACORE™ chip to form a captured antibody surface.

hPCSK9(E366K, V380M) = biological target: T5, hPCSK9(E366K, V380M) (human, UniProt Q8NBP7 31-692); assay: SPR, mAb captured, 25C;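 also: antibodies held on a sensor chip bearing chemically coupled F(ab′)2 anti-human IgG as the capture surface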
T5 construct: mmh-tagged variant hPCSK9
Text: as §1

hPCSK9(S127R) = biological target: T6, hPCSK9(S127R) (human, UniProt Q8NBP7 31-692); assay: SPR, mAb captured, 25C;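 also: antibodies held on a sensor chip bearing chemically coupled F(ab′)2 anti-human IgG as the capture surface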
T6 construct: mmh-tagged variant hPCSK9
Text: as §1

hPCSK9(D238R) = biological target: T7, hPCSK9(D238R) (human, UniProt Q8NBP7 31-692); assay: SPR, mAb captured, 25C;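 also: antibodies held on a sensor chip bearing chemically coupled F(ab′)2 anti-human IgG as the capture surface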
T7 construct: mmh-tagged variant hPCSK9
Text: as §1

hPCSK9(R237E) = biological target: T8, hPCSK9(R237E) (human, UniProt Q8NBP7 31-692); assay: SPR, mAb captured, 25C
T8 construct: mmh-tagged variant hPCSK9
Text: as §1

hPCSK9(R194E) = biological target: T9, hPCSK9(R194E) (human, UniProt Q8NBP7 31-692); assay: SPR, mAb captured, 25C
T9 construct: mmh-tagged variant hPCSK9
Text: as §1

hPCSK9(R215H) = biological target: T10, hPCSK9(R215H) (human, UniProt Q8NBP7 31-692); assay: SPR, mAb captured, 25C
T10 construct: mmh-tagged variant hPCSK9
Text: as §1

hPCSK9(E366K) = biological target: T11, hPCSK9(E366K) (human, UniProt Q8NBP7 31-692); assay: SPR, mAb captured, 25C
T11 construct: mmh-tagged variant hPCSK9
Text: as §1

hPCSK9(R215E) = biological target: T12, hPCSK9(R215E) (human, UniProt Q8NBP7 31-692); assay: SPR, mAb captured, 25C
T12 construct: mmh-tagged variant hPCSK9
Text: as §1

hPCSK9(S153R) = biological target: T13, hPCSK9(S153R) (human, UniProt Q8NBP7 31-692); assay: SPR, mAb captured, 25C
T13 construct: mmh-tagged variant hPCSK9
Text: as §1

hPCSK9(V380M) = biological target: T14, hPCSK9(V380M) (human, UniProt Q8NBP7 31-692); assay: SPR, mAb captured, 25C
T14 construct: mmh-tagged variant hPCSK9
Text: as §1

hPCSK9(T162R) = biological target: T15, hPCSK9(T162R) (human, UniProt Q8NBP7 31-692); assay: SPR, mAb captured, 25C
T15 construct: mmh-tagged variant hPCSK9
Text: as §1

hPCSK9(F216L) = biological target: T16, hPCSK9(F216L) (human, UniProt Q8NBP7 31-692); assay: SPR, mAb captured, 25C
T16 construct: mmh-tagged variant hPCSK9
Text: as §1

hPCSK9(D129G) = biological target: T17, hPCSK9(D129G) (human, UniProt Q8NBP7 31-692); assay: SPR, mAb captured, 25C
T17 construct: mmh-tagged variant hPCSK9
Text: as §1

hPCSK9(E159R) = biological target: T18, hPCSK9(E159R) (human, UniProt Q8NBP7 31-692); assay: SPR, mAb captured, 25C
T18 construct: mmh-tagged variant hPCSK9
Text: as §1

Human PCSK9-myc-myc-his = biological target: T19, Human PCSK9-myc-myc-his (human, UniProt Q8NBP7 31-692); assay: SPR, mAb captured, 25C
T19 construct: also called hPCSK9-mmh; hPCSK9
Text: as §1

hPCSK9(A341R) = biological target: T20, hPCSK9(A341R) (human, UniProt Q8NBP7 31-692); assay: SPR, mAb captured, 25C
T20 construct: mmh-tagged variant hPCSK9
Text: as §1

hPCSK9(D343R) = biological target: T21, hPCSK9(D343R) (human, UniProt Q8NBP7 31-692); assay: SPR, mAb captured, 25C
T21 construct: mmh-tagged variant hPCSK9
Text: as §1

hPCSK9(P70A) = hPCSK9(P70A) (human, UniProt Q8NBP7 31-692); assay: SPR, mAb captured, 25C
Text: as §1

T3 sequence (A8T666 31-692 limits assumed): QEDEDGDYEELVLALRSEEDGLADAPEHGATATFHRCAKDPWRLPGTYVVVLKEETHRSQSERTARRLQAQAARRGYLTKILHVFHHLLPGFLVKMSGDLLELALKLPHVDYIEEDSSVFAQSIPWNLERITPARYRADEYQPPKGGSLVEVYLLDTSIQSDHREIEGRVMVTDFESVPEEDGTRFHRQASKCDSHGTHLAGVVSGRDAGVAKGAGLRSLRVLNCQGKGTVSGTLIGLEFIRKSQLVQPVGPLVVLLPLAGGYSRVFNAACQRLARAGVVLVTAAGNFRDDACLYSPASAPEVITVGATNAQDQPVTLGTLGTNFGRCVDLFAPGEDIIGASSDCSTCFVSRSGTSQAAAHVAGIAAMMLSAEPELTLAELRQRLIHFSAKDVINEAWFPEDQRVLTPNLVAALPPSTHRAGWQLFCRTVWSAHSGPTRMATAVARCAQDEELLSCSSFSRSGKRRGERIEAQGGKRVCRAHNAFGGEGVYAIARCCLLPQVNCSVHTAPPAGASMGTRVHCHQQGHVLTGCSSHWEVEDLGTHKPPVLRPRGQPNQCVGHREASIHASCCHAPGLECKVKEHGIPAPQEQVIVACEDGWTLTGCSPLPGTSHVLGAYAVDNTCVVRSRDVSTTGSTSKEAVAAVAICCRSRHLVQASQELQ
T1 sequence (P59996 31-691 limits assumed): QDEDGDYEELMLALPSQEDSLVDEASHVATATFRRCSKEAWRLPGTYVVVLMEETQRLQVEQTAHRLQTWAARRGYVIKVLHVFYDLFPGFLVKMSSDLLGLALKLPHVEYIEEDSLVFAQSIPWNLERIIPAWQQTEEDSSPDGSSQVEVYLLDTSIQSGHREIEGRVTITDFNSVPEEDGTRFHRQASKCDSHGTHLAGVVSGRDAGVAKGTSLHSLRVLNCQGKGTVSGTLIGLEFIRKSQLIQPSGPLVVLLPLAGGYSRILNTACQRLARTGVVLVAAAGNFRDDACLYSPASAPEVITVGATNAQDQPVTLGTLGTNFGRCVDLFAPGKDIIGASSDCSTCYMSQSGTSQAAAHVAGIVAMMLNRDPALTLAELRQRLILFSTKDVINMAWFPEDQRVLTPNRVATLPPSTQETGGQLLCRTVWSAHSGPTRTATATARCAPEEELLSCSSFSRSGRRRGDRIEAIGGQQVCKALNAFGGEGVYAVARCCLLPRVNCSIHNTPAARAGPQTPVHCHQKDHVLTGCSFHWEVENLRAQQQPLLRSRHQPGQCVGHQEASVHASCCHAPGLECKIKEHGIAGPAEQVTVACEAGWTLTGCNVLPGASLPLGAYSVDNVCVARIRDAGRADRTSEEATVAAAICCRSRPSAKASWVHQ

- OD [1]: < 0.7 od
- OD (hPCSK9(D374Y)-mmh [2]): > 1.5 od
- OD [3]: > 1.5 od
- OD [4]: > 1.5 od
- OD [5]: > 1.5 od
- Kd (hPCSK9(D374Y)-mmh [6]): 0.66 nM
- T1/2 (hPCSK9(D374Y)-mmh [6]): 83 min
- Kd (hPCSK9(E366K, V380M)): 78.3 nM
- T1/2 (hPCSK9(E366K, V380M)): 1 min
- Kd (hPCSK9(S127R)): 1.87 nM
- T1/2 (hPCSK9(S127R)): 110 min
- Kd (hPCSK9(D238R)): 0.78 nM
- T1/2 (hPCSK9(D238R)): 123 min
- Kd (hPCSK9(R237E)): 1.03 nM
- T1/2 (hPCSK9(R237E)): 109 min
- Kd (hPCSK9(R194E)): 0.65 nM
- T1/2 (hPCSK9(R194E)): 129 min
- Kd (hPCSK9(R215H)): 1.03 nM
- T1/2 (hPCSK9(R215H)): 98 min
- Kd (hPCSK9(E366K)): 36 nM
- T1/2 (hPCSK9(E366K)): 2 min
- Kd (hPCSK9(R215E)): 1.81 nM
- Kd (hPCSK9(S153R)): 0.56 nM
- T1/2 (hPCSK9(S153R)): 141 min
- Kd (hPCSK9(V380M)): 2.82 nM
- T1/2 (hPCSK9(V380M)): 28 min
- Kd (hPCSK9(T162R)): 0.58 nM
- T1/2 (hPCSK9(T162R)): 140 min
- Kd (hPCSK9(F216L)): 0.99 nM
- T1/2 (hPCSK9(F216L)): 121 min
- Kd (hPCSK9(D129G)): 1.4 nM
- T1/2 (hPCSK9(D129G)): 88 min
- Kd (hPCSK9(E159R)): 0.82 nM
- T1/2 (hPCSK9(E159R)): 94 min
- Kd (Human PCSK9-myc-myc-his): 0.69 nM
- T1/2 (Human PCSK9-myc-myc-his): 120 min
- Kd (hPCSK9(A341R)): 0.34 nM
- T1/2 (hPCSK9(A341R)): 190 min
- Kd (hPCSK9(D343R)): 1.18 nM
- T1/2 (hPCSK9(D343R)): 89 min
- Kd (hPCSK9(P70A)): 1.68 nM
- T1/2 (hPCSK9(P70A)): 80 min
B1: H1M300N (antibody, V domains shown)
VH: EMQLVESGGGLVQPGGSLRLSCAASGFTFSSHWMKWVRQAPGKGLEWVANINQDGSEKYYVDSVKGRFTISRDNAKNSLFLQMNSLRAEDTAVYYCARDIVLMVYDMDYYYYGMDVWGQGTTVTVSS
VL: not shown
notes: Fully human version made in CHO cells

B2: H1H316P (antibody, V domains shown)
VH: EVQLVESGGGLVQPGGSLRLSCAASGFTFNNYAMNWVRQAPGKGLDWVSTISGSGGTTNYADSVKGRFIISRDSSKHTLYLQMNSLRAEDTAVYYCAKDSNWGNFDLWGRGTLVTVSS
VL: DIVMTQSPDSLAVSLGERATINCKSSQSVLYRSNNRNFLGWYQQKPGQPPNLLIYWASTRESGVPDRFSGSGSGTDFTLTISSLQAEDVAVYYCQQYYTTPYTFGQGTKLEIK
notes: Fully human mAb made in CHO cells; also called mAb316P
- OD [1]: > 1.5 od
- OD (hPCSK9(D374Y)-mmh [2]): > 1.5 od
- OD [3]: > 1.5 od
- OD [4]: > 1.5 od
- OD [5]: > 1.5 od
- Kd (hPCSK9(D374Y)-mmh [6]): 2.04 nM
- T1/2 (hPCSK9(D374Y)-mmh [6]): 15 min
- Kd (hPCSK9(E366K, V380M)): 3.33 nM
- T1/2 (hPCSK9(E366K, V380M)): 12 min
- Kd (hPCSK9(S127R)): 2.4 nM
- T1/2 (hPCSK9(S127R)): 36 min
- Kd (hPCSK9(D238R)): 410 nM
- T1/2 (hPCSK9(D238R)): 1 min
- Kd (hPCSK9(R237E)): 2.48 nM
- T1/2 (hPCSK9(R237E)): 15 min
- Kd (hPCSK9(R194E)): 0.38 nM
- T1/2 (hPCSK9(R194E)): 71 min
- Kd (hPCSK9(R215H)): 0.86 nM
- T1/2 (hPCSK9(R215H)): 41 min
- Kd (hPCSK9(E366K)): 2.92 nM
- T1/2 (hPCSK9(E366K)): 13 min
- Kd (hPCSK9(R215E)): 0.9 nM
- T1/2 (hPCSK9(R215E)): 43 min
- Kd (hPCSK9(S153R)): 5.64 nM
- T1/2 (hPCSK9(S153R)): 4 min
- Kd (hPCSK9(V380M)): 0.48 nM
- T1/2 (hPCSK9(V380M)): 63 min
- Kd (hPCSK9(T162R)): 0.98 nM
- T1/2 (hPCSK9(T162R)): 43 min
- Kd (hPCSK9(F216L)): 1.83 nM
- T1/2 (hPCSK9(F216L)): 32 min
- Kd (hPCSK9(D129G)): 1.27 nM
- T1/2 (hPCSK9(D129G)): 36 min
- Kd (hPCSK9(E159R)): 6.96 nM
- T1/2 (hPCSK9(E159R)): 5 min
- Kd (Human PCSK9-myc-myc-his): 1 nM
- T1/2 (Human PCSK9-myc-myc-his): 37 min
- Kd (hPCSK9(A341R)): 1.54 nM
- T1/2 (hPCSK9(A341R)): 21 min
- Kd (hPCSK9(D343R)): 7.88 nM
- T1/2 (hPCSK9(D343R)): 6 min
- Kd (hPCSK9(P70A)): 1.42 nM
- T1/2 (hPCSK9(P70A)): 32 min
